Reference: article PMC12732654, “Thermodynamic Profiling Reveals DNA Polymerase Template Binding, Substrate Incorporation, and Exonuclease Function”

What was measured:
[1] = target: T1, SS_01 (engineered Phi29 DNA polymerase) (bacteriophage Phi29 (engineered; …, UniProt P03680 1-575, M97K;A484E;K512Y); experiment: ITC; Ca2+; exothermic, smaller heat than Mg2+; ITC: 1x PBS pH 7.5, 0.01% BSA, 0.05% Tween-20, with no metal, 1 mM MgCl2 or 1 mM CaCl2, 25 C, 5 uM SS_01; EMSA: 20 mM HEPES pH 7.5, 4 mM DTT, 1 mM metal chloride, 30 C 30 min, 100 nM DNA, 10 nM polymerase; conditions: protein: recombinant; single strand
T1 sequence: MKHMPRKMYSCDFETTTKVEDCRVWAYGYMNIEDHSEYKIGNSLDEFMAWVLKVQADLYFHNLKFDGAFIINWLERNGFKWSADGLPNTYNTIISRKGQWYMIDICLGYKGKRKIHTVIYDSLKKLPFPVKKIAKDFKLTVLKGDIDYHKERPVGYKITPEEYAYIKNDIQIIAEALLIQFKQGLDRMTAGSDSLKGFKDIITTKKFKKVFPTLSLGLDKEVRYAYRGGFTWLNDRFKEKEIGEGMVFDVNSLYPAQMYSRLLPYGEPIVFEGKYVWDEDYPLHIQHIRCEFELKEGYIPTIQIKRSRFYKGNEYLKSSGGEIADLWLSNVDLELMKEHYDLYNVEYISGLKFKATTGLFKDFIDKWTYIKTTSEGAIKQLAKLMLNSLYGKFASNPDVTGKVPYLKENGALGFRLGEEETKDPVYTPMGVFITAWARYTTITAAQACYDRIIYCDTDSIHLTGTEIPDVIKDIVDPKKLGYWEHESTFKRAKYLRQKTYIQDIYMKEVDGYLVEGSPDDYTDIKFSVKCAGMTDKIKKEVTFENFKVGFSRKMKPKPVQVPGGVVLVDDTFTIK

[2] = target: T1, SS_01 (engineered Phi29 DNA polymerase); experiment: EMSA; 1 mM Mg2+; ITC: 1x PBS pH 7.5, 0.01% BSA, 0.05% Tween-20, with no metal, 1 mM MgCl2 or 1 mM CaCl2, 25 C, 5 uM SS_01; EMSA: 20 mM HEPES pH 7.5, 4 mM DTT, 1 mM metal chloride, 30 C 30 min, 100 nM DNA, 10 nM polymerase; conditions: protein: recombinant; hairpin, self-primed template
[3] = target: T1, SS_01 (engineered Phi29 DNA polymerase); experiment: ITC; 1 mM Ca2+; ITC: 1x PBS pH 7.5, 0.01% BSA, 0.05% Tween-20, with no metal, 1 mM MgCl2 or 1 mM CaCl2, 25 C, 5 uM SS_01; EMSA: 20 mM HEPES pH 7.5, 4 mM DTT, 1 mM metal chloride, 30 C 30 min, 100 nM DNA, 10 nM polymerase; conditions: protein: recombinant; 63 bp duplex, 5' overhang 7 nt on the 70-mer template
[4] = target: T1, SS_01 (engineered Phi29 DNA polymerase); experiment: ITC; 1 mM Mg2+ (Mg2+/Ca2+ comparison set); ITC: 1x PBS pH 7.5, 0.01% BSA, 0.05% Tween-20, with no metal, 1 mM MgCl2 or 1 mM CaCl2, 25 C, 5 uM SS_01; EMSA: 20 mM HEPES pH 7.5, 4 mM DTT, 1 mM metal chloride, 30 C 30 min, 100 nM DNA, 10 nM polymerase; conditions: protein: recombinant; 63 bp duplex, 5' overhang 7 nt on the 70-mer template
[5] = target: T1, SS_01 (engineered Phi29 DNA polymerase); experiment: ITC; no Mg2+; 10 uM DNA into 5 uM protein; ITC: 1x PBS pH 7.5, 0.01% BSA, 0.05% Tween-20, with no metal, 1 mM MgCl2 or 1 mM CaCl2, 25 C, 5 uM SS_01; EMSA: 20 mM HEPES pH 7.5, 4 mM DTT, 1 mM metal chloride, 30 C 30 min, 100 nM DNA, 10 nM polymerase; conditions: protein: recombinant; 63 bp duplex, 5' overhang 7 nt on the 70-mer template
[6] = target: T1, SS_01 (engineered Phi29 DNA polymerase); experiment: ITC; 1 mM Mg2+; 10 uM DNA into 5 uM protein; ITC: 1x PBS pH 7.5, 0.01% BSA, 0.05% Tween-20, with no metal, 1 mM MgCl2 or 1 mM CaCl2, 25 C, 5 uM SS_01; EMSA: 20 mM HEPES pH 7.5, 4 mM DTT, 1 mM metal chloride, 30 C 30 min, 100 nM DNA, 10 nM polymerase; conditions: protein: recombinant; 63 bp duplex, 5' overhang 7 nt on the 70-mer template

B1: unmodified oligonucleotide (non-PS) (ssDNA)
DNA: TCCTAACGAGATTAGTTTTGCTGTT
- binding result [1]: binds

B2: Seq99A hairpin primed template (structured_DNA)
DNA: TTTTTGCGCTCGAGATCTCCGTAAGGAGATCTCGAGCGCGGGACTACTACTGGGATCATCATAGCCACCTCAGCTGCACGTAAGTGCAGCTGAGGTGGC
- binding result [2]: binds

B3: 63/70-mer primed template (dsDNA)
DNA 1: TACGCAGCGTACATGCTCGTGACTGGGATAACCGTGCCGTTTGCCGACTTTCGCAGCCGTCCA
DNA 2: AAACCCTTGGACGGCTGCGAAAGTCGGCAAACGGCACGGTTATCCCAGTCACGAGCATGTACGCTGCGTA
modifications: three consecutive phosphorothioates at 3' terminus of 63-mer
- Kd [3]: 317 ± 75.2 nM
- Kd [4]: 239 ± 68.2 nM
- Kd [5]: 129 ± 9.46 nM
- Kd [6]: 243 ± 80.5 nM
